Reference: patent publication US20190060430A1 (published 2019)

Tests used:
Assay in all cases: cytokine release
[1] = molecular target: T1, TPTE peptide on HLA-B*35:01 (human)
T1 peptide: YPSDFAVEI

[2] = molecular target: T2, TPTE peptide on HLA-DRB1*13:01 (human)
T2 peptide: IFFDIKLLRNIPRWTHLLR

[3] = molecular target: T3, TPTE peptide on HLA-DRB5*02:02 (human)
T3 peptide: IFFDIKLLRNIPRWTHLLR

[4] = molecular target: T4, TPTE peptide on HLA-DRB1*13:01 (human)
T4 peptide: RFLDKKHRNHYRVYN

[5] = molecular target: T5, TPTE peptide on HLA-DRB1*14:01 (human)
T5 peptide: KHFIIYSIPRYVRDLKIQI

[6] = molecular target: T6, TPTE peptide on HLA-DRB3*03:01 (human)
T6 peptide: IKLLRNIPRWTHLLR

[7] = molecular target: T7, TPTE peptide on HLA-DRB1*14:01 (human)
T7 peptide: SPISESVLARLSKFEVEDA

[8] = molecular target: NY-ESO-1 peptide on HLA-DRB1*04:01 (human)
[9] = molecular target: T8, hCMV pp65 peptide on HLA-DRB1*07:01 (human)
T8 peptide: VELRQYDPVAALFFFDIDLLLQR

[10] = molecular target: T9, TPTE peptide on HLA-DRB4*01:01 (human)
T9 peptide: NWNLPPRRILFIKHFIIYS

[11] = molecular target: T10, TPTE peptide on HLA-DRB1*07:01 (human)
T10 peptide: ILADLIFTDSKLYIPLEYR

[12] = molecular target: T11, TPTE peptide on HLA-DRB1*16:01 (human)
T11 peptide: NHYRVYNLCSERAYD

[13] = molecular target: T12, NY-ESO-1 peptide on HLA-DRB1*04:01 (human)
T12 peptide: CFLPVFLAQPPSGQRR

[14] = molecular target: T13, hCMV pp65 peptide on HLA-DRB1*07:01 (human)
T13 peptide: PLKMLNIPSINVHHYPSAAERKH

[15] = molecular target: T14, TPTE peptide on HLA-DRB5*02:02 (human)
T14 peptide: KLIRRRVSENKRRYT

[16] = molecular target: NY-ESO-1 peptide on HLA-DRB1*11:01 (human)
[17] = molecular target: NY-ESO-1 peptide on HLA-DRB1*16:01 (human)
[18] = molecular target: T15, NY-ESO-1 peptide on HLA-DRB5*02:02 (human)
T15 peptide: SGNILTIRLTAADHRQLQL

[19] = molecular target: T16, TPTE peptide on HLA-DRB1*14:01 (human)
T16 peptide: WLHTSFIENNRLYLPKNEL

B1: TCRCD8-TPT#3 (TCR, V domains shown)
Valpha: TQLLEQSPQFLSIQEGENLTVYCNSSSVFSSLQWYRQEPGEGPVLLVTVVTGGEVKKLKRLTFQFGDARKDSSLHITAAQPGDTGLYLCAGAQGQKLLFARGTMLKVDL
Vbeta: DTGVSQNPRHKITKRGQNVTFRCDPISEHNRLYWYRQTLGQGPEFLTYFQNEAQLEKSRLLSDRFSAERPKGSFSTLEIQRTEQGDSAMYLCASSHLAGGNTGELFFGEGSRLTVL
B1: recognises [1].

B2: TCRCD4-TPT#55 (TCR, V domains shown)
Valpha: AQTVTQSQPEMSVQEAETVTLSCTYDTSESDYYLFWYKQPPSRQMILVIRQEAYKQQNATENRFSVNFQKAAKSFSLKISDSQLGDAAMYFCAYRSAVYNTDKLIFGTGTRLQVFP
Vbeta: KAGVTQTPRYLIKTRGQQVTLSCSPISGHRSVSWYQQTPGQGLQFLFEYFSETQRNKGNFPGRFSGRQFSNSRSEMNVSTLELGDSALYLCASSFSSYNEQFFGPGTRLTVL
B2: recognises [2].

B3: TCRCD4-TPT#17 (TCR, V domains shown)
Valpha: DQQVKQNSPSLSVQEGRISILNCDYTNSMFDYFLWYKKYPAEGPTFLISISSIKDKNEDGRFTVFLNKSAKHLSLHIVPSQPGDSAVYFCAASPNTGNQFYFGTGTSLTVIP
Vbeta: GAGVSQSPSNKVTEKGKDVELRCDPISGHTALYWYRQSLGQGLEFLIYFQGNSAPDKSGLPSDRFSAERTGGSVSTLTIQRTQQEDSAVYLCASSLTGGPYEQYFGPGTRLTVT
B3: recognises [3].

B4: TCRCD4-TPT#42 (TCR, V domains shown)
Valpha: GQQVMQIPQYQHVQEGEDFTTYCNSSTTLSNIQWYKQRPGGHPVFLIQLVKSGEVKKQKRLTFQFGEAKKNSSLHITATQTTDVGTYFCAGSTGGGNKLTFGTGTQLKVEL
Vbeta: GAGVSQSPRYKVAKRGQDVALRCDPISGHVSLFWYQQALGQGPEFLTYFQNEAQLDKSGLPSDRFFAERPEGSVSTLKIQRTQQEDSAVYLCASSDFYEQYFGPGTRLTVT
B4: recognises [4].

B5: TCRCD4-TPT#5 (TCR, V domains shown)
Valpha: AQTVTQSQPEMSVQEAETVTLSCTYDTSESDYYLFWYKQPPSRQMILVIRQEAYKQQNATENRFSVNFQKAAKSFSLKISDSQLGDAAMYFCAYSRTSGTYKYIFGTGTRLKVLA
Vbeta: ETGVTQTPRHLVMGMTNKKSLKCEQHLGHNAMYWYKQSAKKPLELMFVYNFKEQTENNSVPSRFSPECPNSSHLFLHLHTLQPEDSALYLCASSQEISGSSYEQYFGPGTRLTVT
B5: recognises [5].

B6: TCRCD4-TPT#27 (TCR, V domains shown)
Valpha: GENVEQHPSTLSVQEGDSAVIKCTYSDSASNYFPWYKQELGKRPQLIIDIRSNVGEKKDQRIAVTLNKTAKHFSLHITETQPEDSAVYFCAALYSGGGADGLTFGKGTHLIIQP
Vbeta: DGGITQSPKYLFRKEGQNVTLSCEQNLNHDAMYWYRQDPGQGLRLIYYSQIVNDFQKGDIAEGYSVSREKKESFPLTVTSAQKNPTAFYLCASSIGGGVNTEAFFGQGTRLTVV
B6: recognises [6].

B7: TCRCD4-TPT#6 (TCR, V domains shown)
Valpha: QKEVEQDPGPLSVPEGAIVSLNCTYSNSAFQYFMWYRQYSRKGPELLMYTYSSGNKEDGRFTAQVDKSSKYISLFIRDSQPSDSATYLCAMSAVSFGNVLHCGSGTQVIVLP
Vbeta: ETGVTQSPTHLIKTRGQQVTLRCSSQSGHNTVSWYQQALGQGPQFIFQYYREEENGRGNFPPRFSGLQFPNYSSELNVNALELDDSALYLCASSFGENTIYFGEGSWLTVV
B7: recognises [7].

B8: TCRCD4-NY#3 (TCR, V domains shown)
Valpha: QKEVEQDPGPLSVPEGAIVSLNCTYSNSAFQYFMWYRQYSRKGPELLMYTYSSGNKEDGRFTAQVDKSSKYISLFIRDSQPSDSATYLCAMSKGAQKLVFGQGTRLTINP
Vbeta: EAGVAQSPRYKIIEKRQSVAFWCNPISGHATLYWYQQILGQGPKLLIQFQNNGVVDDSQLPKDRFSAERLKGVDSTLKIQPAKLEDSAVYLCASSLGDSNTGELFFGEGSRLTVL
B8: recognises [8].

B9: TCRCD4-CMV#5 (TCR, V domains shown)
Valpha: GIQVEQSPPDLILQEGANSTLRCNFSDSVNNLQWFHQNPWGQLINLFYIPSGTKQNGRLSATTVATERYSLLYISSSQTTDSGVYFCAAGSNTGNQFYFGTGTSLTVIP
Vbeta: NAGVTQTPKFRVLKTGQSMTLLCAQDMNHEYMYWYRQDPGMGLRLIHYSVGEGTTAKGEVPDGYNVSRLKKQNFLLGLESAAPSQTSVYFCASSSRGYGTDTQYFGPGTRLTVL
B9: recognises [9].

B10: TCRCD4-TPT#4 (TCR, V domains shown)
Valpha: AQKITQTQPGMFVQEKEAVTLDCTYDTSDPSYGLFWYKQPSSGEMIFLIYQGSYDQQNATEGRYSLNFQKARKSANLVISASQLGDSAMYFCATASNFGNEKLTFGTGTRLTIIP
Vbeta: SAVISQKPSRDICQRGTSLTIQCQVDSQVTMMFWYRQQPGQSLTLIATANQGSEATYESGFVIDKFPISRPNLTFSTLTVSNMSPEDSSIYLCSVDRDREDGYTFGSGTRLTVV
B10: recognises [10].

B11: TCRCD4-TPT#11 (TCR, V domains shown)
Valpha: SQQGEEDPQALSIQEGENATMNCSYKTSINNLQWYRQNSGRGLVHLILIRSNEREKHSGRLRVTLDTSKKSSSLLITASRAADTASYFCAGYNTNAGKSTFGDGTTLTVKP
Vbeta: NAGVTQTPKFRILKIGQSMTLQCAQDMNHNYMYWYRQDPGMGLKLIYYSVGAGITDKGEVPNGYNVSRSTTEDFPLRLELAAPSQTSVYFCASSFGQVWADTQYFGPGTRLTVL
B11: recognises [11].

B12: TCRCD4-TPT#38 (TCR, V domains shown)
Valpha: ELKVEQNPLFLSMQEGKNYTIYCNYSTTSDRLYWYRQDPGKSLESLFVLLSNGAVKQEGRLMASLDTKARLSTLHITAAVHDLSATYFCAVGFRGSTLGRLYFGRGTQLTVWP
Vbeta: DAGVTQSPTHLIKTRGQHVTLRCSPISGHKSVSWYQQVLGQGPQFIFQYYEKEERGRGNFPDRFSARQFPNYSSELNVNALLLGDSALYLCASSWGQGNEKLFFGSGTQLSVL
B12: recognises [12].

B13: TCRCD4-NY#1 (TCR, V domains shown)
Valpha: GIQVEQSPPDLILQEGANSTLRCNFSDSVNNLQWFHQNPWGQLINLFYIPSGTKQNGRLSATTVATERYSLLYISSSQTTDSGVYFCAVNDYKLSFGAGTTVTVRA
Vbeta: DSGVTQTPKHLITATGQRVTLRCSPRSGDLSVYWYQQSLDQGLQFLIQYYNGEERAKGNILERFSAQQFPDLHSELNLSSLELGDSALYFCASSPGVSGTTEAFFGQGTRLTVV
B13: recognises [13].

B14: TCRCD4-CMV#1 (TCR, V domains shown)
Valpha: KQEVTQIPAALSVPEGENLVLNCSFTDSAIYNLQWFRQDPGKGLTSLLLIQSSQREQTSGRLNASLDKSSGRSTLYIAASQPGDSATYLCAVKDNDMRFGAGTRLTVKP
Vbeta: DTAVSQTPKYLVTQMGNDKSIKCEQNLGHDTMYWYKQDSKKFLKIMFSYNNKELIINETVPNRFSPKSPDKAHLNLHINSLELGDSAVYFCASSQEKRGAFFGQGTRLTVV
B14: recognises [14].

B15: TCRCD4-TPT#33 (TCR, V domains shown)
Valpha: DQQVKQNSPSLSVQEGRISILNCDYTNSMFDYFLWYKKYPAEGPTFLISISSIKDKNEDGRFTVFLNKSAKHLSLHIVPSQPGDSAVYFCAARSYGGSQGNLIFGKGTKLSVKP
Vbeta: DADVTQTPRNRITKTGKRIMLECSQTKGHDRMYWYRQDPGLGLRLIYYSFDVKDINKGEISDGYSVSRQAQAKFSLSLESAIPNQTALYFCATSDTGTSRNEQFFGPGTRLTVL
B15: recognises [15].

B16: TCRCD4-NY#7 (TCR, V domains shown)
Valpha: AQSVTQLDSQVPVFEEAPVELRCNYSSSVSVYLFWYVQYPNQGLQLLLKYLSGSTLVKGINGFEAEFNKSQTSFHLRKPSVHISDTAEYFCAVSKSGGYQKVTFGTGTKLQVIP
Vbeta: GAVVSQHPSWVICKSGTSVKIECRSLDFQATTMFWYRQFPKQSLMLMATSNEGSKATYEQGVEKDKFLINHASLTLSTLTVTSAHPEDSSFYICSAAPGLAGGQGGSQYFGPGTRLLVL
B16: recognises [16]; recognises [17].

B17: TCRCD4-TPT#87 (TCR, V domains shown)
Valpha: ELKVEQNPLFLSMQEGKNYTIYCNYSTTSDRLYWYRQDPGKSLESLFVLLSNGAVKQEGRLMASLDTKARLSTLHITAAVHDLSATYFCAVDMWNNNARLMFGDGTQLVVKP
Vbeta: KAGVTQTPRYLIKTRGQQVTLSCSPISGHRSVSWYQQTPGQGLQFLFEYFSETQRNKGNFPGRFSGRQFSNSRSEMNVSTLELGDSALYLCASSLAQSGANVLTFGAGSRLTVL
B17: recognises [2].

B18: TCRCD4-NY#13 (TCR, V domains shown)
Valpha: KQEVTQIPAALSVPEGENLVLNCSFTDSAIYNLQWFRQDPGKGLTSLLLIQSSQREQTSGRLNASLDKSSGRSTLYIAASQPGDSATYLCAVPTDSWGKLQFGAGTQVVVTP
Vbeta: DTGVSQDPRHKITKRGQNVTFRCDPISEHNRLYWYRQTLGQGPEFLTYFQNEAQLEKSRLLSDRFSAERPKGSFSTLEIQRTEQGDSAMYLCASSSKLTGIPEGTDTQYFGPGTRLTVL
B18: recognises [18].

B19: TCRCD4-TPT#13 (TCR, V domains shown)
Valpha: EDQVTQSPEALRLQEGESSSLNCSYTVSGLRGLFWYRQHPGKGPEFLFTLYSAGEEKEKERLKATLTKKESFLHITAPKPEDSATYLCAVQASNSGNTPLVFGKGTRLSVIA
Vbeta: DGGITQSPKYLFRKEGQNVTLSCEQNLNHDAMYWYRQDPGQGLRLIYYSQIVNDFQKGDIAEGYSVSREKKESFPLTVTSAQKNPTAFYLCASSAPHQRGTNEQFFGPGTRLTVL
B19: recognises [19].
